{"source": "paper PMC2787876", "about": "(Journal of molecular biology, 2009)", "binders": {"B1": {"name": "arrestin1 2A-3A-h3A (natural protein, bovine, UniProt P08168 1-404, looked up)", "chain": "MKANKPAPNHVIFKKISRDKSVTIYLGKRDYIDHVERVEPVDGAVAVDPELVKGKRVYVSLTCAFRYGQEDIDVMGLSFRRDLYFSQVQVFPPVGASGATTRAQESAIKKAGANTYPFLLTFPDYLPCSVMLQPAPQDVGKSCGVDFEIKAFATHSTDVEEDKIPKKSSVRLLIRKVQHAPRDMGPQPRAEASWQFFMSDKPLRLAVSLSKEIYYHGEPIPVTVAVTNSTEKTVKKIKVLVEQVTNVVLYSSDYYIKTVAAEEAQEKVPPNSSLTKTLTLVPLLANNRERRGIALDGKIKHEDTNLASSTIIKEGIDKTVMGILVSYQIKVKLTVSGLLGELTSSEVATEVPFRLMHPQPEDPDTAKESFQDENAAAEEFARQNLKDAGEYKEEKTDQEAAMDE", "modifications": "[3H]leucine and [14C]leucine incorporated"}, "B2": {"name": "arrestin1 h3A on the background of the 3A mutation (natural protein, bovine, UniProt P08168 1-404, looked up)", "chain": "B1 chain with A44V, A46L", "modifications": "[3H]leucine and [14C]leucine incorporated"}}, "target": "light activated unphosphorylated rhodopsin (UniProt P02699 1-348, retinal chromophore, light-activated)", "sequence (P02699 whole entry)": "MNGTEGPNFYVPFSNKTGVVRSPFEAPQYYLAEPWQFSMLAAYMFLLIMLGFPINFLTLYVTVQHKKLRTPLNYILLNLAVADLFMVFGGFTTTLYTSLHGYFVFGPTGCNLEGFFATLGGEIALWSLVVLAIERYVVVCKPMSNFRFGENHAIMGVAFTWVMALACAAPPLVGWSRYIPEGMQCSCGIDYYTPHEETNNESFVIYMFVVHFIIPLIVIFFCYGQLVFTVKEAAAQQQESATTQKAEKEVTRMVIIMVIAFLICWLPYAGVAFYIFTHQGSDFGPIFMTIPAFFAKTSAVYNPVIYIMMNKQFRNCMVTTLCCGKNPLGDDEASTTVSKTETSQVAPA", "assay": "dissociation of the complex after dilution", "note": "Changes are numbered by the printed parent chain."}
{"binder": "B1", "values": [{"measurement": "half-life of the complex (t1/2)", "result": "1.2 ± 0.117", "unit": "h"}]}
{"binder": "B2", "values": [{"measurement": "half-life of the complex (t1/2)", "result": "1.28 ± 0.15", "unit": "h"}]}
